According to publication PMC5460766:
One block for each substance: values may come before it.

Experiments:
Experiment in all cases: ITC
[1] = target: NDD(MlnD)+MlnKR4 (Bacillus amyloliquefaciens FZB42) (UniProt A7Z473)
[2] = target: NDD(MlnE)+MlnKR6 (Bacillus amyloliquefaciens FZB42) (UniProt A7Z474)
[3] = target: NDD(MlnG)+MlnKR9 (Bacillus amyloliquefaciens FZB42) (UniProt A7Z476)

Kd [1]: 1800 nM
Substance: MlnDH4+CDD(MlnC) (from UniProt A7Z472 1-1590) (domain or fragment)

Kd [2]: 800 nM
Substance: MlnKS6+CDD(MlnD) (from UniProt A7Z473 1-2902) (domain or fragment)

Kd [3]: 9000 nM
Substance: MlnDH9+CDD(MlnF) (from UniProt A7Z475 1-1903) (domain or fragment)
